Experimental data published in US20150259402A1 (EVEC, published 2015).

What was measured:
[1] = biological target: T1, toxin A fragment 4 (receptor-binding domain, amino acids 1853 to 2710 of toxin A) (Clostridium difficile, UniProt P16154 1853-2710); test: Western blotting on E. coli lysates of toxin A fragments
T1 construct: also called RB domain

[2] = biological target: T2, Clostridium difficile toxin A (Clostridium difficile, UniProt P16154 1-2710); test: cell-based or functional assay
[3] = biological target: T2, Clostridium difficile toxin A; test: SPR, Biacore T200, biotinylated toxin A on sensor chip CAP, antibody flowed
[4] = biological target: Clostridium difficile toxin B (Clostridium difficile, UniProt P18177 2-2366); test: cell-based or functional assay
[5] = biological target: T3, toxin B fragment 4 (receptor-binding domain, amino acids 1777 to 2366 of toxin B) (Clostridium difficile, UniProt P18177 1777-2366); test: Western blotting on E. coli lysates of toxin B fragments
T3 construct: also called RB domain
T3 sequence (P18177 1777-2366): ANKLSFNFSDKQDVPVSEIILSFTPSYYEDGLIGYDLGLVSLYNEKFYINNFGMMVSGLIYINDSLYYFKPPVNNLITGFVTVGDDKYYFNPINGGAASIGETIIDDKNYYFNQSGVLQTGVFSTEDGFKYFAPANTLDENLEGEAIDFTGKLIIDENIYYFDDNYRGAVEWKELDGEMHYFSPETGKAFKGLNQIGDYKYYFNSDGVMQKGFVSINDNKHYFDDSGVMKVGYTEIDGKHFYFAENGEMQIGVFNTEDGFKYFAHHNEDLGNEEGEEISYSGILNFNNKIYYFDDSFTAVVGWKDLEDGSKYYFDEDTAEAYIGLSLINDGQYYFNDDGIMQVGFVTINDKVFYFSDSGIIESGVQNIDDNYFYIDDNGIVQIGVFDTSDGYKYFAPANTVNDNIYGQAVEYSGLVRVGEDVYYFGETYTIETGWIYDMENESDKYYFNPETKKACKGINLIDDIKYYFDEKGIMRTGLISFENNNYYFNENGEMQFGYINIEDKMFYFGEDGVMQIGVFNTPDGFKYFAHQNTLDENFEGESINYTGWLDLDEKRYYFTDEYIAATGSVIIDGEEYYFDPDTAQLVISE

T2 sequence (P16154 whole entry): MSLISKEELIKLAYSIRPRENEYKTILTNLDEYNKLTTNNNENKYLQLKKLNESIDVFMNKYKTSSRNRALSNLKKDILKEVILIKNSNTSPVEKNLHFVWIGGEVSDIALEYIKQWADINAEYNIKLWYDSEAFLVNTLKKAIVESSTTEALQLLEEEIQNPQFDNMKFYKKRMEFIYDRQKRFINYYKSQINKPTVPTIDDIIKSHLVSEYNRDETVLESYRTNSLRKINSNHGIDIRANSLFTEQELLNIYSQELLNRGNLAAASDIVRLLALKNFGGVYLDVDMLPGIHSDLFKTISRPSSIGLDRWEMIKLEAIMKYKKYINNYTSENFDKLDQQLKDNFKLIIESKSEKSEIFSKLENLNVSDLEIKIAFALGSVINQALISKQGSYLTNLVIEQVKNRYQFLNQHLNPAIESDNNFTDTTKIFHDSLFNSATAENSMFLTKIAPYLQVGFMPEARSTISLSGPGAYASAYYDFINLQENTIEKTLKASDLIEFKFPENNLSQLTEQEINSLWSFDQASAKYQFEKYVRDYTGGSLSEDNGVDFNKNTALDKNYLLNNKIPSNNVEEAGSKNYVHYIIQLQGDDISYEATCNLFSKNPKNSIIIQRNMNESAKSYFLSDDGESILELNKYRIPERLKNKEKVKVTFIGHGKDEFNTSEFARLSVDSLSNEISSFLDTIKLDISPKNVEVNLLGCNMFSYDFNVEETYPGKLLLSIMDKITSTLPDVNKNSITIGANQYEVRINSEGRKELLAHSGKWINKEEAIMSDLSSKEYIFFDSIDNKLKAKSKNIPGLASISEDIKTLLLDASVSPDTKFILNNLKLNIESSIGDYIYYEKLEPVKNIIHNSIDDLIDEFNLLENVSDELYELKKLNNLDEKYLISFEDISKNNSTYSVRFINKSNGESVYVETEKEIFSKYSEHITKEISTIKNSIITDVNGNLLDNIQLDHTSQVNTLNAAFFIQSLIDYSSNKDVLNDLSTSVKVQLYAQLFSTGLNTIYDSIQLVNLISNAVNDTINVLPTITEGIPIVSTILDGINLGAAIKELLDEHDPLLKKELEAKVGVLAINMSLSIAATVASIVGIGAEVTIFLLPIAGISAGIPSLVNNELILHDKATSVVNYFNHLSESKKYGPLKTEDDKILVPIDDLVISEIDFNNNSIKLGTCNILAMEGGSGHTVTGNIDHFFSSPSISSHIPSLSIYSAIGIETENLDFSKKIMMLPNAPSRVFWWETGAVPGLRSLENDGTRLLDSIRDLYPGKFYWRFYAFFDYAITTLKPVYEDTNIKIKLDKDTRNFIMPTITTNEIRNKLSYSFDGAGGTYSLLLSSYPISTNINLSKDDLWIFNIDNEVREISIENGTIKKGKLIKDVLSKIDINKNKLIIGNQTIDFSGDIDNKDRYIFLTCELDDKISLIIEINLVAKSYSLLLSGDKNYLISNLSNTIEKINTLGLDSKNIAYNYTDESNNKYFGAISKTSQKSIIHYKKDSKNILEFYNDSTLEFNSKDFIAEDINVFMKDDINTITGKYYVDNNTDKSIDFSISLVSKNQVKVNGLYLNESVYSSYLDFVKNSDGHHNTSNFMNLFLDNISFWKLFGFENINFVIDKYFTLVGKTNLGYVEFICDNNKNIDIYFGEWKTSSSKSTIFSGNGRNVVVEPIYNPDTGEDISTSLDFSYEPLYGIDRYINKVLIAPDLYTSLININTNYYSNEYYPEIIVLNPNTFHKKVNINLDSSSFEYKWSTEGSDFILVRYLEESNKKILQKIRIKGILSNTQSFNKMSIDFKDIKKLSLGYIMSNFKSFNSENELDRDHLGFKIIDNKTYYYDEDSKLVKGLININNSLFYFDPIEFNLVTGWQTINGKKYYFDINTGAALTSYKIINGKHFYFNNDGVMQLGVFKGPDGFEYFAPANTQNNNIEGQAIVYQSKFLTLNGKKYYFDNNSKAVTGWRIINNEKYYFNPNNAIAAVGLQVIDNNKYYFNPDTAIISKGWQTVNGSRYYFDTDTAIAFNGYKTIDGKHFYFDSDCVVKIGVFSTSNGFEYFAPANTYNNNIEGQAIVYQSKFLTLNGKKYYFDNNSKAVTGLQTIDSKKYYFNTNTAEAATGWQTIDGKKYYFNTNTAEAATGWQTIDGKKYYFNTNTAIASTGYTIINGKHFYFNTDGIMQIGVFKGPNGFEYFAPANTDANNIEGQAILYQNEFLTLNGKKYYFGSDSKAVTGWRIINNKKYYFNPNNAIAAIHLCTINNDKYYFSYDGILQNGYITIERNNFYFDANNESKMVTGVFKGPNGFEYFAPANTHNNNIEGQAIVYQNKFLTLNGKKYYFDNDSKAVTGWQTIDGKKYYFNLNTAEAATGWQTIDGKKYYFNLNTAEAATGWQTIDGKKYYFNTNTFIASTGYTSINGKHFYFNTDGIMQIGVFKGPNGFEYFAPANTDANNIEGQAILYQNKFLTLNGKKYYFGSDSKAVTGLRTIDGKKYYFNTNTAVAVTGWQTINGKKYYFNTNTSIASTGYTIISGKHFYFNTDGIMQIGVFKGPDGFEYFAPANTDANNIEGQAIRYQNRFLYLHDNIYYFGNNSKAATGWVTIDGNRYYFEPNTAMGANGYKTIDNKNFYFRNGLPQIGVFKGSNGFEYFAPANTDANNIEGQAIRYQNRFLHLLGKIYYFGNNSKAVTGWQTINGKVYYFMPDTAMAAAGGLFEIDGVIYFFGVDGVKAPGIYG
T1 sequence (P16154 1853-2710): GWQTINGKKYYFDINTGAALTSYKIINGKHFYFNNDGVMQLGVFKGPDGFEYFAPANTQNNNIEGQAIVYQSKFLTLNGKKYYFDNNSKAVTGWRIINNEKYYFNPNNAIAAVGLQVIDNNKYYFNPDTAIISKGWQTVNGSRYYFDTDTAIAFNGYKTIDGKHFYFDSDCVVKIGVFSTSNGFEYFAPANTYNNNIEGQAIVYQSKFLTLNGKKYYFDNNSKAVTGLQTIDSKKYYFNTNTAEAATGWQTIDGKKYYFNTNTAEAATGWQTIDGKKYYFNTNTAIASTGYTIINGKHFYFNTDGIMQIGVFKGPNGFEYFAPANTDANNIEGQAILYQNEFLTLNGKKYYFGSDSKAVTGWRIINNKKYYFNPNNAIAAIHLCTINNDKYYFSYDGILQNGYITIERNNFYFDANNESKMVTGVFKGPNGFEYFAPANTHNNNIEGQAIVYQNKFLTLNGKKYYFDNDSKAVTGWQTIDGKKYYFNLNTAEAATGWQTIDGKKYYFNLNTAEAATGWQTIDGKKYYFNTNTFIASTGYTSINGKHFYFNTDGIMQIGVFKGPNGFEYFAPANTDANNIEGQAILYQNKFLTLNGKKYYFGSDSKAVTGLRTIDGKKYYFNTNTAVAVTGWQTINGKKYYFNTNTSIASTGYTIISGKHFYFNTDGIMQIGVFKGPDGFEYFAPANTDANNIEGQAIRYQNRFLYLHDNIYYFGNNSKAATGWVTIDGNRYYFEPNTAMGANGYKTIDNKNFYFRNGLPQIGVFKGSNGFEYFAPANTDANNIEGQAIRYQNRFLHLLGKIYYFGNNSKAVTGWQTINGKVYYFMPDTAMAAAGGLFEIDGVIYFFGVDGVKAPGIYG

Binder	binding result [1]	EC50 (ng/mL), neutralizing activity against the cytotoxicity of toxin A to IMR-90 cells (cell rounding) [2] [ng/mL]	EC50, neutralizing activity against the cytotoxicity of toxin A to IMR-90 cells (cell rounding) [2] [nM]	Kd [3] [nM]	koff [3] [s⁻¹]	kon [3] [M⁻¹ s⁻¹]	neutralizing activity (EC50 value), rounding of toxin B-exposed IMR-90 cells [4] [ng/mL]	binding result [5]
EV029105a (antibody, human IgG1, kappa, V domains shown, also called anti-toxin A antibody EV029105a) VH: QVQLVQSGAEVKKPGSSVKVSCKASGDTFSSHAITWVRQAPGQGLEWMGRIIPIFSISDYAQKFQGRVTFTADKSTSIAFMELSSLRSQDTAVYYCARSLLAYCTGGSCSEFGAEDHWGQGTLVTVSS VL: EIVLTQSPGTLSLSPGERATLSCRASQSVSSNYLAWYQQKPGQAPRLLIFGASSRATGIPDRFSGSGSGTDFTLTISRLEPEDFAVYYCQQYGSSIPVTFGQGTKVEIKR	binds	4.92	0.033	0.151	9.89e-05	653000	–	–
EV029104 (antibody, human IgG1, lambda, V domains shown, also called anti-toxin B antibody EV029104) VH: EVQLVESGGGLVQPGGSLRLSCAASGLTINSYWMNWVRQIPGKGLEWVANINPTGSQQYYVDSVRGRFTISRDDAKKSLFLQLDSLRVEDTAVYYCARGRRGNSAYCDSWGQGTQVTVSS VL: QSALTQPRSVSGSPGQSVTISCTGTSSDIGAYDYVSWYRHHPGKAPKLIIFDVAKWPSGVPDRFSGSKSGNTASLTISGLQDDDEGDYYCCSYAGRFSLIFGGGTKLTVLG	–	–	–	–	–	–	≤ 100	binds
